Our source for the AlphaScreen @18 h, EC50 and SOS assay EC50 values is US20260001914A1, “MACROCYCLIC PEPTIDES TARGETING KRAS” (Merck Sharp & Dohme LLC, priority 2022, published 2026).

Bounds are passed on as bounds.

Assay [1] addresses KRAS-G12D in AsPC-1 cells (UniProt P01116). The assay can be described thus: cell-based or functional assay.
Assay [2] addresses Biotin-labeled KRAS-G12D protein (UniProt P01116-2 1-169, limits assumed, biotin label (site not stated); loaded with BODIPY-GDP). The assay can be described thus: cell-based or functional assay.

On to “cyclo(FLac-NMeA-4F3Pal-Nle-Phe2F-Nle-NMeF-amBCP) (peptide)”, for which the AlphaScreen @18 h, EC50 in assay [1] turned out to be 0.589 µM. This substance also displayed an SOS assay EC50 in assay [2] of 72.4 nM.
For “cyclo(dF-R-Phe4Gn-Nle-TyrOMe-Nle-NMeF-c3amCblc) (peptide)”, the AlphaScreen @18 h, EC50 in assay [1] was more than 50.9 µM. This substance showed an SOS assay EC50 in assay [2] of 17.3 nM.
In the case of “cyclo(FLac-NMeA-PyrimAla-cBuA-Phe2F-hL3F-NMeF-amBCP) (peptide)”, the AlphaScreen @18 h, EC50 in assay [1] was 0.674 µM. This substance also gave an SOS assay EC50 in assay [2] of 1.87 nM.
For “cyclo(FLac-NMeNvaF-PyrimAla-cPrA-Phe2F-hL-NMeF-amBCP) (peptide)” the same measures were 1.23 µM and 26 nM.
For “cyclo(FLac-NMeNvaF2-PyrimAla-cPrA-Phe2F-hL-NMeF-amBCP) (peptide)” the same measures were 1.77 µM and 173 nM.
For “cyclo(FLac-NMeNvalmid-PyrimAla-Nle-Phe2F-Nle-NMeF-amBCP) isomer 2 (peptide)” the same measures were 11.1 µM and 25.3 nM.
For the substance “cyclo(FLac-NMeNvalmid-4F3Pal-Nle-Phe2F-Nle-NMeF-amBCP) isomer 2 (peptide)”, in assay [1], the AlphaScreen @18 h, EC50 was more than 50.9 µM. The substance further returned an SOS assay EC50 in assay [2] of 69.7 nM.
For “cyclo(FLac-NMeNvalmid-4CF33Pal-Nle-Phe2F-Nle-NMeF-amBCP) isomer 2 (peptide)”, in that order: more than 50.9 µM and 62.8 nM.
“cyclo(FLac-NMeA-3Pal2F-Nle-Phe2F-Nle-NMe3Pal-amBCP) (peptide)” displayed an AlphaScreen @18 h, EC50 in assay [1] of 50.2 µM. This substance also yielded an SOS assay EC50 in assay [2] of 1450 nM.
For “cyclo(Phe3Me-NMeA-3Pal-Nle-Phe2F-Nle-NMe3Pal-amBCP) (peptide)”, in that order: 32.3 µM and 22.3 nM.
For “cyclo(FLac-NMeA-PyrimAla-Nle-Phe2F-Nle-NMeF-amBCP) (peptide)” the same measures were 0.59 µM and 17.4 nM.
With “cyclo(FLac-NMeA-PyrimAla-cPrA-3Pal2F-hL-NMeF-amBCP) (peptide)”, the AlphaScreen @18 h, EC50 in assay [1] was found to be 4.18 µM. In assay [2], this substance showed an SOS assay EC50 of 31 nM.
For “cyclo(FLac-NMeA-3Pal-Nle-Phe2F-Nle-NMe3Pal-amBCP) (peptide)”, in that order: 7.3 µM and 36 nM.
For “cyclo(FLac-NMeA-PyrimAla-rF2Cba-Phe2F-Nle-NMe3Pal-amBCP) isomer 1 (peptide)” the same measures were more than 50.9 µM and 236 nM.
For “cyclo(FLac-NMeA-PyrimAla-cPrA-Phe2F-hL-NMeF-amBCP) (peptide)”, in that order: 0.168 µM and 1.95 nM.
Substance “cyclo(CPhe-NMeA-PyrimAla-cPrA-Phe2F-Nle3F2-NMeF-MeOximamBCP) isomer 2 (peptide)” yielded an AlphaScreen @18 h, EC50 in assay [1] of 0.128 µM. This substance also registered an SOS assay EC50 in assay [2] of 1.7 nM.
For “cyclo(F-NMeR-3Pal-Nle-TyrOMe-LysN3-NMeF-tamcPr) (peptide)” the same measures were more than 50.9 µM and 224 nM.
In assay [1], “cyclo(FLac-NMeA-PyrimAla-Nle-Phe2F-NleF-NMeF-amBCP) (peptide)” showed an AlphaScreen @18 h, EC50 of 2.33 µM. Moreover, in assay [2], the SOS assay EC50 is 10.1 nM.
The substance “cyclo(FLac-NMeS-PyrimAla-Nle-Phe2F-Nle-NMe3Pal-amBCP) (peptide)” returned an AlphaScreen @18 h, EC50 in assay [1] of more than 50.9 µM. This substance also displayed an SOS assay EC50 in assay [2] of 375 nM.
For “cyclo(1Nal-R-K-Nle-Phe3COOH-Nle-NMeF-Cysteamine-C1Ac) (peptide)”, in that order: more than 50.9 µM and 2120 nM.
With “cyclo(FLac-NMeA-3Pal-Nle-Phe2F-Nle-NMeCha-amBCP) (peptide)”, in assay [1], the AlphaScreen @18 h, EC50 is more than 50.9 µM. This substance also registered an SOS assay EC50 in assay [2] of 2940 nM.
Turning to “cyclo(FLac-NMeA-PyrimAla-Nle-Phe2F-Nle-NMePhe3Me-amBCP) (peptide)”, the AlphaScreen @18 h, EC50 in assay [1] was 0.256 µM. The substance also registered an SOS assay EC50 in assay [2] of 6.03 nM.
For “cyclo(FLac-AlaCN-3Pal-Nle-Phe2F-Nle-NMe3Pal-amBCP) (peptide)” the same measures were more than 50.9 µM and 3750 nM.
For “cyclo(FLac-NMeDabN3-PyrimAla-Nle-Phe2F-Nle-NMe3Pal-amBCP) (peptide)” the same measures were 11.6 µM and 80.9 nM.
With “cyclo(FLac-NMeNvalmid-PyrimAla-Nle-Phe2F-Nle-NMe3Pal-amBCP) (peptide)”, the AlphaScreen @18 h, EC50 in assay [1] was more than 50.9 µM. This substance had an SOS assay EC50 in assay [2] of 27.2 nM.
Take “cyclo(FLac-NMeA-PyrimAla-cBuA-Phe2F-hL-NMeF-amBCP) (peptide)”: the AlphaScreen @18 h, EC50 in assay [1] is 0.33 µM. In assay [2], this substance had an SOS assay EC50 of 6.47 nM.
For “cyclo(FLac-NMeNvalmid-3Pal-Nle-Phe2F-Nle-NMe3Pal-c3amCblc) (peptide)” the same measures were more than 50.9 µM and 758 nM.
“cyclo(FLac-NMeA-PyrimAla-Nle-2Pal6F-Nle-NMeF-amBCP) (peptide)” showed an AlphaScreen @18 h, EC50 in assay [1] of 48.7 µM. In assay [2], the SOS assay EC50 was 559 nM.
For “cyclo(FLac-NMeA-3Pal-Nle-Phe2F-Nle-NMeF-amBCP) (peptide)”, the AlphaScreen @18 h, EC50 in assay [1] was 1.44 µM. For the same substance, in assay [2], the SOS assay EC50 is 50.3 nM.
Consider “cyclo(FLac-NMeNvalmid-PyrimAla-Nle-Phe2F-Nle-NMeF-amBCP) isomer 1 (peptide)”, for which, in assay [1], the AlphaScreen @18 h, EC50 was more than 50.9 µM. The substance also displayed an SOS assay EC50 in assay [2] of 494 nM.
